{"source": "patent US20070219354A1", "target": "2081/anti-NF IgG, polyclonal antibody generated against the SEVNF peptide", "experiment": "ORIGEN ECL competition against biotinylated-SEVNF; reference SEVNF"}
{"binder": "SEVNL", "note": "[SEVNL peptide]", "values": [{"measurement": "fold less effective in competition than SEVNF", "result": 100, "unit": "fold"}]}
